Data reported in US20120207760A1.

B1: TCN-534 (5249_B02) (antibody, V domains shown)
VH: QVQLVQSGAEVKKPGSSVKVSCRESGGTFNGYTITWVRQAPGQGLEWMGGIIPMMGTVNYAQKLQGRVTITTDYFTKTAYMDLNNLRSEDTAMYYCVKIRYTGQQLLWGQGTLVTVSS
VL: DIQMTQSPSTLSASIGDRVTITCRASQSIASWLAWYQQKPGKAPKLLIYEAVNLESGVPSRFSGSGSGTDFTLTISSLQPDDFATYFCQHYGTISQTFGGGTKVEIK
B2: TCN-563 (5237_B21) (antibody, V domains shown)
VH: QVQLAQSGAEVKRPGSSVKVSCTASGGIFRKNAISWVRQAPGQGLEWMGGIIAVFNTANYAQKFQGRVKITADESGNTAYMELSSLRSDDTAVYYCASHPKYFYGSGSYPDFWGQGTLVTVSS
VL: QSALTQPRSVSGSPGQSVTISCTGSSSDVGASNSVSWYQQHPGKAPKLVIYDVTERPSGVPHRFSGSKSGNTASLTVSGLQPEDEADYFCCAYGGKYLVVFGGGTKVTVL
B3: TCN-530 (5248_H10a) (antibody, V domains shown)
VH: QVQLVQSGAEVRKPGSSVKVSCKASGGPFMSYAIGWVRQAPGQGLEWMGGINPVFGRPHYAQKFQGRVTIATDDSTKTSYMELSSLTSEDTGMYYCASRYSRSSPGTFESWGQGTLVTVSS
VL: EIVMTQFPATLSVSPGERVTLSCRASQSVSNNLAWYQQKPGQPPRLLIYDASTRATGVPAKFSGTGSGTEFTLSISSLQSEDFAVYYCQQYHNWPPSYSFGLGTKLEIK
B4: TCN-528 (5087_P17) (antibody, V domains shown)
VH: QVQLVQSGSEVKKPGASVKVSCKASGYTFTNYDINWIRQAPGQGLEWMGWINPNSGTTGSAQRFQGRVTITVDTSITTVYMELSSLRSDDTAIYYCARGRELLRLQHFLTDSQSERRDCFDPWGQGTLVTVSS
VL: DIQMTQSPSSLSASVGDRVTITCRANQDIGIYLNWYQQNPGKVPKLLLHGASSLQGGVPSRFSASGSGTDFTLTIHSLQPEDLATYYCQQSRRLPYTFGQGTRVELK
B5: TCN-527 (5086_C06) (antibody, V domains shown)
VH: QVQLQESGPGLVKPSETLSLNCAVSGGSISNYYWSWIRQPPGKGLEWIGYISYNGRPKYNPSLTSRVTISVDTSKDQFSLELRSVTAADTALYYCARETRFGELLSPYDAFEIWGQGTMVTVSS
VL: DIQMTQSPSSLSASVGDRVTMTCRASQNIRSYLNWYQQRPGTAPKLLIYAASTLHSGVPSRFSGGGSGTDFTLTINNLQPEDFASYYCQQSYDNPQTFGQGTKVEIK

Assays:
Conditions in all cases: remark: other sources report otherwise
[1] = target: T1, recombinant homotrimeric HA, A/California/4/09 H1N1 (Influenza A virus A/California/4/09 (H1N1)); assay: trimeric HA microarray, transfection set 4
[2] = target: T2, recombinant homotrimeric HA, A/Indonesia/5/05 H5N1 (Influenza A virus A/Indonesia/5/05 (H5N1)); assay: trimeric HA microarray, transfection set 4
[3] = target: T3, recombinant homotrimeric HA, A/Japan/305/57 H2N2 (Influenza A virus A/Japan/305/57 (H2N2)); assay: trimeric HA microarray, transfection set 4
[4] = target: T4, recombinant homotrimeric HA, A/Solomon Islands/3/06 H1N1 (Influenza A virus A/Solomon Islands/3/06 (H1N1)); assay: trimeric HA microarray, transfection set 4
[5] = target: T5, recombinant homotrimeric HA, A/South Carolina/1/18 H1N1 (Influenza A virus A/South Carolina/1/18 (H1N1)); assay: trimeric HA microarray, transfection set 4
[6] = target: T6, recombinant homotrimeric HA, A/Vietnam/1203/04 H5N1 (Influenza A virus A/Vietnam/1203/04 (H5N1)); assay: trimeric HA microarray, transfection set 4
[7] = target: T7, recombinant homotrimeric HA, A/Wisconsin/67/05 H3N2 (Influenza A virus A/Wisconsin/67/05 (H3N2)); assay: trimeric HA microarray, transfection set 4
[8] = target: recombinant homotrimeric HA, A/Anhui/1/05 H5N1 (Influenza A virus A/Anhui/1/05 (H5N1)); assay: trimeric HA microarray, transfection set 2
[9] = target: T1, recombinant homotrimeric HA, …; assay: trimeric HA microarray, transfection set 2
[10] = target: T8, recombinant homotrimeric HA, A/Egypt/3300-NAMRU3/08 H5N1 (Influenza A virus A/Egypt/3300-NAMRU3/08 (H5N1)); assay: trimeric HA microarray, transfection set 2
[11] = target: T9, recombinant homotrimeric HA, A/Hong Kong/1073/99 H9N2 (Influenza A virus A/Hong Kong/1073/99 (H9N2)); assay: trimeric HA microarray, transfection set 2
[12] = target: T10, recombinant homotrimeric HA, A/Hong Kong/2108/03 H9N2 (Influenza A virus A/Hong Kong/2108/03 (H9N2)); assay: trimeric HA microarray, transfection set 2
[13] = target: T2, recombinant homotrimeric HA, …; assay: trimeric HA microarray, transfection set 2
[14] = target: T3, recombinant homotrimeric HA, …; assay: trimeric HA microarray, transfection set 2
[15] = target: recombinant homotrimeric HA, A/Netherlands/219/03 H7N7 (Influenza A virus A/Netherlands/219/03 (H7N7)); assay: trimeric HA microarray, transfection set 2
[16] = target: T4, recombinant homotrimeric HA, A/Solomon …; assay: trimeric HA microarray, transfection set 2
[17] = target: T5, recombinant homotrimeric HA, A/South …; assay: trimeric HA microarray, transfection set 2
[18] = target: T6, recombinant homotrimeric HA, …; assay: trimeric HA microarray, transfection set 2
[19] = target: T7, recombinant homotrimeric HA, …; assay: trimeric HA microarray, transfection set 2
[20] = target: T11, recombinant homotrimeric HA, A/chicken/Vietnam/NCVD-016/08 H5N1 (Influenza A virus A/chicken/Vietnam/NCVD-016/08 (H5N1)); assay: trimeric HA microarray, transfection set 2
[21] = target: T12, recombinant homotrimeric HA, A/common magpie/Hong Kong/5052/07 H5N1 (Influenza A virus A/common magpie/Hong Kong/5052/07 (H5N1)); assay: trimeric HA microarray, transfection set 2
[22] = target: recombinant homotrimeric HA, A/duck/Yangzhou/02/05 H8N4 (Influenza A virus A/duck/Yangzhou/02/2005 (H8N4)); assay: trimeric HA microarray, transfection set 2
[23] = target: T13, recombinant homotrimeric HA, A/northern shoveler/California/HKWF115/07 (Influenza A virus A/northern shoveler/California/HKWF115/2007 (H6N1)); assay: trimeric HA microarray, transfection set 2
[24] = target: T1, recombinant homotrimeric HA, …; assay: trimeric HA microarray, transfection set 3
[25] = target: T8, recombinant homotrimeric HA, …; assay: trimeric HA microarray, transfection set 3
[26] = target: T9, recombinant homotrimeric HA, A/Hong …; assay: trimeric HA microarray, transfection set 3
[27] = target: T10, recombinant homotrimeric HA, A/Hong …; assay: trimeric HA microarray, transfection set 3
[28] = target: T2, recombinant homotrimeric HA, …; assay: trimeric HA microarray, transfection set 3
[29] = target: T3, recombinant homotrimeric HA, …; assay: trimeric HA microarray, transfection set 3
[30] = target: T4, recombinant homotrimeric HA, A/Solomon …; assay: trimeric HA microarray, transfection set 3
[31] = target: T5, recombinant homotrimeric HA, A/South …; assay: trimeric HA microarray, transfection set 3
[32] = target: T6, recombinant homotrimeric HA, …; assay: trimeric HA microarray, transfection set 3
[33] = target: T7, recombinant homotrimeric HA, …; assay: trimeric HA microarray, transfection set 3
[34] = target: T11, recombinant homotrimeric HA, …; assay: trimeric HA microarray, transfection set 3
[35] = target: T12, recombinant homotrimeric HA, A/common …; assay: trimeric HA microarray, transfection set 3
[36] = target: T13, recombinant homotrimeric HA, A/northern …; assay: trimeric HA microarray, transfection set 3
[37] = target: T14, recombinant homotrimeric HA, A/swine/Ontario/01911-2/99 H4N6 (Influenza A virus A/swine/Ontario/01911-2/99 (H4N6)); assay: trimeric HA microarray, transfection set 3
[38] = target: T14, recombinant homotrimeric HA, …; assay: trimeric HA microarray, transfection set 2

| Binder | Trimeric HA Binding RLU [8] | Trimeric HA Binding RLU [9] | Trimeric HA Binding RLU [10] | Trimeric HA Binding RLU [11] | Trimeric HA Binding RLU [12] | Trimeric HA Binding RLU [13] | Trimeric HA Binding RLU [14] | Trimeric HA Binding RLU [15] | Trimeric HA Binding RLU [16] | Trimeric HA Binding RLU [17] | Trimeric HA Binding RLU [18] | Trimeric HA Binding RLU [19] | Trimeric HA Binding RLU [20] | Trimeric HA Binding RLU [21] | Trimeric HA Binding RLU [22] | Trimeric HA Binding RLU [23] | Trimeric HA Binding RLU [38] | further results |
| --- | --- | --- | --- | --- | --- | --- | --- | --- | --- | --- | --- | --- | --- | --- | --- | --- | --- | --- |
| B1 |  |  |  |  |  |  |  |  |  |  |  |  |  |  |  |  |  | Trimeric HA Binding RLU [1]: 27000 RLU; Trimeric HA Binding RLU [2]: 948 RLU; Trimeric HA Binding RLU [3]: 14700 RLU; Trimeric HA Binding RLU [4]: 60 RLU; Trimeric HA Binding RLU [5]: 11800 RLU; Trimeric HA Binding RLU [6]: 23700 RLU; Trimeric HA Binding RLU [7]: 897 RLU |
| B2 | 1570 RLU | 21200 RLU | 23900 RLU | 49200 RLU | 364 RLU | 47300 RLU | 11200 RLU | 5420 RLU | 26500 RLU | 17800 RLU | 31500 RLU | 23700 RLU | 36300 RLU | 52800 RLU | 6280 RLU | 21900 RLU |  |  |
| B3 |  |  |  |  |  |  |  |  |  |  |  |  |  |  |  |  |  | Trimeric HA Binding RLU [24]: 21200 RLU; Trimeric HA Binding RLU [25]: 25500 RLU; Trimeric HA Binding RLU [26]: 10200 RLU; Trimeric HA Binding RLU [27]: 44 RLU; Trimeric HA Binding RLU [28]: 25500 RLU; Trimeric HA Binding RLU [29]: 5170 RLU; Trimeric HA Binding RLU [30]: 13800 RLU; Trimeric HA Binding RLU [31]: 17200 RLU; Trimeric HA Binding RLU [32]: 25200 RLU; Trimeric HA Binding RLU [33]: 3050 RLU; Trimeric HA Binding RLU [34]: 18000 RLU; Trimeric HA Binding RLU [35]: 5580 RLU; Trimeric HA Binding RLU [36]: 23500 RLU; Trimeric HA Binding RLU [37]: 123 RLU |
| B4 | 21200 RLU | 44600 RLU | 36800 RLU | 322 RLU | 33600 RLU | 39700 RLU | 23100 RLU | 47200 RLU | 26900 RLU | 25200 RLU | 23300 RLU | 46000 RLU | 22600 RLU | 45300 RLU | 19800 RLU | 28400 RLU | 49200 RLU |  |
| B5 | 15200 RLU | 21500 RLU | 23600 RLU | 557 RLU | 25500 RLU | 23400 RLU | 20800 RLU | 49100 RLU | 19700 RLU | 48100 RLU | 20600 RLU | 35800 RLU | 20100 RLU | 43800 RLU | 17900 RLU | 19300 RLU | 30100 RLU |  |
